Values quoted from earlier work, collected in publication PMC9079180.

Target: tau (Homo sapiens)

Chain of Hsp70 (P0A6Z0 2-638): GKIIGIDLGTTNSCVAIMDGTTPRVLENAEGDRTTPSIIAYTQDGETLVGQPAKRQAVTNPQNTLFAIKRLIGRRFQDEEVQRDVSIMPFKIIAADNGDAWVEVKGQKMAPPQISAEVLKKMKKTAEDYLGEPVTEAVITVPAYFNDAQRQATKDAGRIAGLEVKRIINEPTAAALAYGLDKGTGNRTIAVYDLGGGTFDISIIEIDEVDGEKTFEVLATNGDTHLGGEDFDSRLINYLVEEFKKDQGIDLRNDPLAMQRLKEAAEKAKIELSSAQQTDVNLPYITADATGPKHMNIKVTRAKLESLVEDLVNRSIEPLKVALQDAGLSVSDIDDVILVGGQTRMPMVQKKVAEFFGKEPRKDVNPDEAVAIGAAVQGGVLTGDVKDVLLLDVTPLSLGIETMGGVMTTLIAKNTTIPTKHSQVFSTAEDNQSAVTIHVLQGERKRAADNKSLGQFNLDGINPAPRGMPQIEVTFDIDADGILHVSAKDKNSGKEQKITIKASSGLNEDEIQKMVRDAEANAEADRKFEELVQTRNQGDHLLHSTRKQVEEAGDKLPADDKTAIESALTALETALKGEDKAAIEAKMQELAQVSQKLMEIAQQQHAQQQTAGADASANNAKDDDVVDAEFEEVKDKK

Kd: 400 nM
Substance: Hsp70 (from UniProt P0A6Z0)
